{"source": "the supplement of paper PMC9112550", "about": "“Optimization of the antimicrobial peptide Bac7 by deep mutational scanning” (BMC Biology, 2022);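 further: peptides expressed intracellularly from a pBAD plasmid library in pooled LB shake-flask culture, induced with 0.3% L-arabinose, DNA abundance read by NGS, three biological replicates, DESeq2 with apeglm shrinkage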"}
{"tested_on": "Escherichia coli TOP10", "assay": "shrunken log2 fold change of peptide-encoding DNA abundance (4.5 h post-induction vs induction); higher = less antimicrobial activity (less host growth inhibition)", "conditions": "time post-induction: 4.5 h; library: site-saturation at positions 5, 18, 19, 20"}
{"sequence": "RRIRSRPPRLPRPRPRPVMAPRP", "shrunken log2 fold change": 0.304}
{"sequence": "RRIRIRPPRLPRPRPRPVKQPRP", "shrunken log2 fold change": 0.101}
{"sequence": "RRIRLRPPRLPRPRPRPHQCPRP", "shrunken log2 fold change": 0.0182}
{"sequence": "RRIRWRPPRLPRPRPRPVRQPRP", "shrunken log2 fold change": 0.161}
{"sequence": "RRIRVRPPRLPRPRPRPYCEPRP", "shrunken log2 fold change": -0.0433}
{"sequence": "RRIRARPPRLPRPRPRPTICPRP", "shrunken log2 fold change": 0.144}
{"sequence": "RRIRGRPPRLPRPRPRPDLIPRP", "shrunken log2 fold change": 0.87}
{"sequence": "RRIRPRPPRLPRPRPRPAAPPRP", "shrunken log2 fold change": 0.467}
{"sequence": "RRIRRRPPRLPRPRPRPLMCPRP", "shrunken log2 fold change": -0.13}
{"sequence": "RRIRNRPPRLPRPRPRPMMSPRP", "shrunken log2 fold change": 0.0191}
{"sequence": "RRIRIRPPRLPRPRPRPRTYPRP", "shrunken log2 fold change": -0.726}
{"sequence": "RRIRERPPRLPRPRPRPNVVPRP", "shrunken log2 fold change": 0.0366}
{"sequence": "RRIRRRPPRLPRPRPRPFTFPRP", "shrunken log2 fold change": -0.247}
{"sequence": "RRIRQRPPRLPRPRPRPYRFPRP", "shrunken log2 fold change": 0.0797}
{"sequence": "RRIRRRPPRLPRPRPRPLVSPRP", "shrunken log2 fold change": 0.153}
{"sequence": "RRIRIRPPRLPRPRPRPNQDPRP", "shrunken log2 fold change": -0.507}
{"sequence": "RRIRHRPPRLPRPRPRPWTRPRP", "shrunken log2 fold change": -0.0761}
{"sequence": "RRIRARPPRLPRPRPRPIFLPRP", "shrunken log2 fold change": -0.0119}
{"sequence": "RRIRKRPPRLPRPRPRPRIHPRP", "shrunken log2 fold change": -0.0869}
{"sequence": "RRIRERPPRLPRPRPRPENQPRP", "shrunken log2 fold change": -0.174}
{"sequence": "RRIRPRPPRLPRPRPRPFSYPRP", "shrunken log2 fold change": -0.192}
{"sequence": "RRIRSRPPRLPRPRPRPTATPRP", "shrunken log2 fold change": 0.703}
{"sequence": "RRIRRRPPRLPRPRPRPEATPRP", "shrunken log2 fold change": 2.74}
{"sequence": "RRIRFRPPRLPRPRPRPEPWPRP", "shrunken log2 fold change": 0.172}
{"sequence": "RRIRVRPPRLPRPRPRPRWAPRP", "shrunken log2 fold change": 0.343}
{"sequence": "RRIRPRPPRLPRPRPRPEFCPRP", "shrunken log2 fold change": 0.18}
{"sequence": "RRIRSRPPRLPRPRPRPCDYPRP", "shrunken log2 fold change": -0.238}
{"sequence": "RRIRRRPPRLPRPRPRPRQQPRP", "shrunken log2 fold change": -0.0361}
{"sequence": "RRIRPRPPRLPRPRPRPIGYPRP", "shrunken log2 fold change": -0.0758}
{"sequence": "RRIRGRPPRLPRPRPRPGWDPRP", "shrunken log2 fold change": 1.09}
{"sequence": "RRIRQRPPRLPRPRPRPAYRPRP", "shrunken log2 fold change": -0.216}
{"sequence": "RRIRKRPPRLPRPRPRPNNGPRP", "shrunken log2 fold change": -0.324}
{"sequence": "RRIRTRPPRLPRPRPRPLDKPRP", "shrunken log2 fold change": -0.18}
{"sequence": "RRIRDRPPRLPRPRPRPMWCPRP", "shrunken log2 fold change": 0.00673}
{"sequence": "RRIRCRPPRLPRPRPRPDYGPRP", "shrunken log2 fold change": 2.76}
{"sequence": "RRIRWRPPRLPRPRPRPPHLPRP", "shrunken log2 fold change": 0.0195}
{"sequence": "RRIRPRPPRLPRPRPRPFAFPRP", "shrunken log2 fold change": 0.00781}
{"sequence": "RRIRLRPPRLPRPRPRPRLLPRP", "shrunken log2 fold change": 0.167}
{"sequence": "RRIRTRPPRLPRPRPRPKNPPRP", "shrunken log2 fold change": -0.0748}
{"sequence": "RRIRARPPRLPRPRPRPTKQPRP", "shrunken log2 fold change": -0.148}
{"sequence": "RRIRTRPPRLPRPRPRPGYEPRP", "shrunken log2 fold change": -0.0417}
{"sequence": "RRIRKRPPRLPRPRPRPISCPRP", "shrunken log2 fold change": 0.0993}
{"sequence": "RRIRTRPPRLPRPRPRPDFGPRP", "shrunken log2 fold change": -0.0474}
{"sequence": "RRIRVRPPRLPRPRPRPLEWPRP", "shrunken log2 fold change": -0.0248}
{"sequence": "RRIRSRPPRLPRPRPRPTMRPRP", "shrunken log2 fold change": 0.881}
{"sequence": "RRIRGRPPRLPRPRPRPHWAPRP", "shrunken log2 fold change": 0.362}
{"sequence": "RRIRARPPRLPRPRPRPVSWPRP", "shrunken log2 fold change": 0.813}
{"sequence": "RRIRRRPPRLPRPRPRPGHKPRP", "shrunken log2 fold change": 0.0528}
{"sequence": "RRIRLRPPRLPRPRPRPVCMPRP", "shrunken log2 fold change": -0.246}
{"sequence": "RRIRFRPPRLPRPRPRPSFRPRP", "shrunken log2 fold change": -0.433}
{"sequence": "RRIRGRPPRLPRPRPRPNAIPRP", "shrunken log2 fold change": 0.668}
{"sequence": "RRIRPRPPRLPRPRPRPDTLPRP", "shrunken log2 fold change": -0.284}
{"sequence": "RRIRKRPPRLPRPRPRPGEMPRP", "shrunken log2 fold change": 1.62}
{"sequence": "RRIRERPPRLPRPRPRPLMAPRP", "shrunken log2 fold change": -0.169}
{"sequence": "RRIRTRPPRLPRPRPRPISMPRP", "shrunken log2 fold change": -0.262}
{"sequence": "RRIRQRPPRLPRPRPRPRDGPRP", "shrunken log2 fold change": 0.666}
{"sequence": "RRIRTRPPRLPRPRPRPVAWPRP", "shrunken log2 fold change": 0.217}
{"sequence": "RRIRPRPPRLPRPRPRPFQTPRP", "shrunken log2 fold change": -0.242}
{"sequence": "RRIRKRPPRLPRPRPRPKVSPRP", "shrunken log2 fold change": -0.0412}
{"sequence": "RRIRGRPPRLPRPRPRPFFRPRP", "shrunken log2 fold change": 0.211}
{"sequence": "RRIRCRPPRLPRPRPRPAQQPRP", "shrunken log2 fold change": 0.342}
{"sequence": "RRIRLRPPRLPRPRPRPIQAPRP", "shrunken log2 fold change": 0.0789}
{"sequence": "RRIRTRPPRLPRPRPRPFTWPRP", "shrunken log2 fold change": -0.308}
